From patent US7288523B2, “Peptide binding the KLVFF-sequence of amyloid-β” (Neurochem (International) Limited, priority 1995, dated 2007)

Experiments:
amyloid fibril formation = amyloid fibril formation (Homo sapiens, UniProt P05067); conditions: literature; cited from earlier work
Aβ-1-40 [1] = target: T1, Aβ-1-40 (Homo sapiens, UniProt P05067); assay: Aβ-1-40 polymerization alone or coincubated with peptide, electron microscopy; assay type: biochemical
T1 construct: Incubation of synthetic Aβ-1-40 at 100 μM for 48 h; host or cells: synthetic peptide (chemical synthesis)
Description: Aβ-1-40 was incubated at 100 μM in TBS for 48 h at 37° C. in a shaking water bath, either alone or together with 100 μM AcKLVFFNH2. The polymerized material was adsorbed to formvar-coated grids and negatively stained with 2% uranyl acetate in water.

[2] = Aggregation and fibril formation of Aβ-1-28 peptides (RPLC of supernatant, electron microscopy of pellet); assay type: physicochemical; conditions: 200 μM, 24 h, 37° C., TBS
Description: Aβ-1-28 (FIG. 3A) and AP-1-28^AAVFA (FIG. 3B) were incubated at 200 μM in TBS for 24 h at 37° C. in a shaking water bath. After incubation, the tubes were centrifuged at 20,000 g for 20 min and the content of non-aggregated peptide in the supernatants (FIG. 3A, B) was analyzed using an established C4 RPLC system (12) whereas the aggregated peptides in the pellets were analyzed by electron microscopy after adsorption to formvar-coated grids and negative staining with 2% uranyl acetate in water.

[3] = literature; cited from earlier work
^125I-labelled Aβ-1-40 = target: T2, ^125I-labelled Aβ-1-40 (Homo sapiens, UniProt P05067); assay: SPOT filter-bound peptides incubated with radioactive Aβ-1-40, autoradiography and densitometry; assay type: binding; conditions: 20 μM ^125I-labelled Aβ-1-40, 20° C., 12 h, TBS pH 7.3; semiquantitative
T2 construct: incubated in the presence of 20 μM ^125I-labelled Aβ-1-40; host or cells: synthetic peptide (chemical synthesis)
Description: a) Ten-mers corresponding to consecutive sequences of Aβ-1-40 were synthesized on a filter matrix using the SPOT-technique (the peptides were synthesized essentially as described by Frank [R. Frank, Tetrahedron 42, 9217-9232 (1992)]. Briefly, a spacer corresponding to 2 molecules of β-alanine was coupled to cellulose membranes (Whatman lChr). The peptides were synthesized on these derivatized membranes using Fmoc protected and pentafluorophenyl-activated amino acids (AMS Biotechnology) dissolved in N-methylpyrrolidone. Coupling efficiency was monitored using bromphenol blue.). We synthesized the thirty-one possible 10-mers of the Aβ-1-40. Peptide no. 1 corresponds to amino acids 1-10, peptide no. 2 to amino acids 2-11 etc. The filter-bound peptides were incubated with radioactive Aβ-1-40. Following washing of the filter in high-salt buffer, bound radioactivity was estimated by autoradiography and densitometry. […] Radioactivity bound to the filter was visualized by autoradiography and quantitated using a densitometer.
b) Peptide no. 11 ([…]) and indicated N- and C-terminal truncated fragments were synthesized using the same technique as described above and analyzed for affinity to ^125I-labelled Aβ-1-40.
d) Each amino acid residue in KLVFF was systematically replaced with A and analyzed for affinity to ^125I-labelled Aβ-1-40. […]

Aβ-1-40 [4] = target: T1, Aβ-1-40; assay: Surface plasmon resonance spectroscopy (BIAcore 2000), Aβ-1-40 over immobilized peptide; assay type: binding; conditions: chip derivatized with KLVFF-βA-βA-C; three Aβ-1-40 concentrations, pH 7.4
Description: c) Sensorgram from BIAcore 2000. Aβ-1-40, at three different concentrations in running buffer, pH 7.4. Aβ-1-40 was injected during 10 minutes over a sensor-chip derivatized with the peptide KLVFF-βA-βA-C.
c) The interaction between soluble Aβ-1-40 and immobilized KLVFF was monitored in real-time (FIG. 2D) using surface plasmon resonance spectroscopy (BIAcore, Pharmacia) (BIAcore 2000 (Pharmacia Biosensor AB, Sweden) was used for real-time studies based on surface plasmon resonance spectroscopy. The peptide was immobilized using thiol coupling. The running buffer consisted of 10 mM HEPES, 0.15 M NaCl, 3.4 mM EDTA and 0.05% surfactant P20 as described. [U. Jansson, M. Malmqvist, Adv. Biosens. 2, 291-336 (1992)]).
d) AA served as linker between the active peptide and the chip (upper trace) and cysteine alone, indicating non-specific binding, (C) as control (lower trace). Arrows indicate start and stop of injection (FIG. 2D).

Aβ (Aβ-16-20) = target: T3, Aβ (Aβ-16-20) (Homo sapiens, UniProt P05067); assay: Binding to Aβ (Example 5)
T3 construct: It is a 40 to 42 amino acids long proteolytic fragment of the Alzheimer amyloid precursor protein (APP)
Description: (§1) By screening combinatorial pentapeptide libraries exclusively composed of D-amino acids (lowercase) with labelled KLVFF, several ligands with a motif containing phenylalanine (f) in the second and leucine (l) in the third position were identified (e.g. lflrr). By using a short peptide in the screening, known to bind to a region in Aβ critical for its polymerization (i.e. KLVFF), the risk of identifying D-pentapeptides that interact with nonrelevant regions in Aβ (N- or C-terminal to Aβ-16-20) was eliminated. […] Since peptides built up of D-amino acids are resistant to proteolytic degradation, these ligands may be beneficial for inhibition of amyloidogenesis in vivo.

Aβ = target: T4, Aβ (Homo sapiens, UniProt P05067); assay: Inhibition of amyloid fibril formation (Example 5); assay type: biochemical
T4 construct: It is a 40 to 42 amino acids long proteolytic fragment of the Alzheimer amyloid precursor protein (APP)

[5] = WO 95/08999; cited from earlier work
labelled KLVFF = target: T5, labelled KLVFF (Homo sapiens, UniProt P05067); assay: Screening of combinatorial D-amino acid pentapeptide libraries with labelled KLVFF; assay type: binding
T5 construct: with labelled KLVFF
Description: as §1

Nc1c(/N=N/c2ccc(-c3ccc(/N=N/c4cc(S(=O)(=O)O)c5ccccc5c4N)cc3)cc2)cc(S(=O)(=O)O)c2ccccc12 [Congo red]
inhibition of amyloid fibril formation (amyloid fibril formation): may have such properties

AcQKLVFFNH2
Aβ-1-40 amyloid fibril formation on coincubation with peptide (Aβ-1-40 [1]; 100 μM Aβ-1-40 with equimolar peptide, 48 h, 37° C.): this type of fibrils did not form
aggregates formed by the peptide itself (Aβ-1-40 [1]; peptide alone, electron microscopy): small rod-like aggregates

Aβ-1-28: a well-studied Aβ fragment that readily forms amyloid fibrils [reference compound]
aggregation (non-aggregated peptide in supernatant) [2]: aggregated
fibril formation (electron microscopy) [2]: formed large fibril bundles
formation of amyloid fibrils [3]: readily forms amyloid fibrils

Aβ-1-28^AAVFA: mutated Aβ-1-28 where the KLVFF sequence was substituted with AAVFA
aggregation (non-aggregated peptide in supernatant) [2]: almost completely failed to aggregate
fibril formation (electron microscopy) [2]: only formed a few dispersed fibrils
fibril formation (electron microscopy) ([2]; listed as alanine-substituted Aβ-1-28): does not form fibrils

Lys-Leu-Val-Phe-Phe [KLVFF]
binding of radioactive Aβ-1-40 to filter-bound peptide (^125I-labelled Aβ-1-40): high Aβ binding capacity
binding of soluble Aβ-1-40 to immobilized peptide (sensorgram) (Aβ-1-40 [4]): not saturable
binding to Aβ (Aβ (Aβ-16-20)): binds stereo specifically
inhibition of amyloid fibril formation (Aβ): inhibit amyloid fibril formation
amnestic or memory enhancing effect [5]: neither significantly amnestic nor memory enhancing

lflrr
identified as ligand of labelled KLVFF (labelled KLVFF): identified

p3: fragment of Aβ termed p3 and corresponding to Aβ-17-40 or Aβ-17-42 (LVFFAEDVGSNKGAIIGLMVGGVV; P3(40); UniProt P05067 688-711, looked up)
formation of amyloid fibrils [3]: not capable of forming amyloid in vitro or in vivo
